Reference: doi:10.1101/2022.02.10.479912 (bioRxiv, 2022)
Values belong to the binder of their own block, whether it stands above or below them.

Experiments:
[1] = molecular target: T1, human Interleukin-18 (mature) (human, UniProt Q14116 37-193); assay: SEC-MALLS
T1 sequence (looked up): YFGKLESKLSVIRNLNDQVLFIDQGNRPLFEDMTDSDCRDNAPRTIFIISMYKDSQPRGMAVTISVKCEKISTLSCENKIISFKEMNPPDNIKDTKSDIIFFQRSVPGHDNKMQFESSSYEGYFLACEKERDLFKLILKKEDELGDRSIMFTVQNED

[2] = molecular target: T1, human Interleukin-18 (mature); assay: ITC

- binding result [1]: binds
B1: human IL-18BP truncated at the N-terminus (residues 63-194), endogenously glycosylated, without Endo H treatment (domain or fragment, UniProt O95998 63-194, looked up)
chain: QCPALEVTWPEVEVPLNGTLSLSCVACSRFPNFSILYWLGNGSFIEHLPGRLWEGSTSRERGSTGTQLCKALVLEQLTPALHSTNFSCVLVDPEQVVQRHVVLAQLWAGLRATLPPTQEALPSSHSSPQQQG
modifications: N-linked Man5GlcNAc2 glycans, not trimmed (no Endo H)

- binding result [2]: binds
B2: human IL-18BP truncated at the N-terminus (residues 63-194) treated with Endoglycosidase H (domain or fragment, UniProt O95998 63-194, looked up)
chain: B1 chain
modifications: N-glycans trimmed by Endo H; N-Acetylglucosamine (GlcNAc) at Asn79, Asn103 and Asn147 in the crystal structure
